To fix the notation:
T1: human DLL3 on DLL3-expressing tumor cell lines (human, UniProt Q9NYJ7 27-618)
T1 sequence: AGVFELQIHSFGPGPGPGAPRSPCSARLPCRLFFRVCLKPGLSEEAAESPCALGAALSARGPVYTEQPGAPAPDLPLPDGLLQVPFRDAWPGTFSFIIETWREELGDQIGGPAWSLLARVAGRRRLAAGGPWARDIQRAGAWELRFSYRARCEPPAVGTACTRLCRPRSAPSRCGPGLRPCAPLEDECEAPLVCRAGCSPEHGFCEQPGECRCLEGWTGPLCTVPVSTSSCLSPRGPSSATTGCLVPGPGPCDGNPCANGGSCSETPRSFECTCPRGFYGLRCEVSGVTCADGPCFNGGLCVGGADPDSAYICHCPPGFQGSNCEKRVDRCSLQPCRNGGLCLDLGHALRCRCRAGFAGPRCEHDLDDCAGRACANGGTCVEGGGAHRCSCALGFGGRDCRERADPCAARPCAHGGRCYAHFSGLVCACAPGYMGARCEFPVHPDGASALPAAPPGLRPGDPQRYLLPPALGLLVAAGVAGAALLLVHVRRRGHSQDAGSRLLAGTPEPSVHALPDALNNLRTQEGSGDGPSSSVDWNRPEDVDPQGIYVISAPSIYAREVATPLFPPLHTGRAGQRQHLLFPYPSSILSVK

T2: biotinylated human DLL3 protein expressed as a human IgG1 fusion protein (human, UniProt Q9NYJ7 27-492, limits assumed, biotinylated)
T2 sequence: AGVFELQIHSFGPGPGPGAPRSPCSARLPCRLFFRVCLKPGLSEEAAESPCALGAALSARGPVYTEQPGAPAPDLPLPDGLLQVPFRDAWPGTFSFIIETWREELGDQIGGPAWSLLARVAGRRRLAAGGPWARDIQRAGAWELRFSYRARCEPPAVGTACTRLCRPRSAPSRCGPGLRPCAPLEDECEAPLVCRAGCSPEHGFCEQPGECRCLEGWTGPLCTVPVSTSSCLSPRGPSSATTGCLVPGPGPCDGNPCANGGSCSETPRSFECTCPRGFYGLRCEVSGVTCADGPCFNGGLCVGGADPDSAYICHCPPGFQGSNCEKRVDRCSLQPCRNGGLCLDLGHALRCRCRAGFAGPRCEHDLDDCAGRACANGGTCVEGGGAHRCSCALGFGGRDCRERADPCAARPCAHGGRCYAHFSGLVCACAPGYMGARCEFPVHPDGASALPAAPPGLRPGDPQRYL

T3: cynomolgus DLL3 (cynomolgus, UniProt A0A2K5WSR1 27-490)
T3 construct: also called cyDLL3
T3 sequence: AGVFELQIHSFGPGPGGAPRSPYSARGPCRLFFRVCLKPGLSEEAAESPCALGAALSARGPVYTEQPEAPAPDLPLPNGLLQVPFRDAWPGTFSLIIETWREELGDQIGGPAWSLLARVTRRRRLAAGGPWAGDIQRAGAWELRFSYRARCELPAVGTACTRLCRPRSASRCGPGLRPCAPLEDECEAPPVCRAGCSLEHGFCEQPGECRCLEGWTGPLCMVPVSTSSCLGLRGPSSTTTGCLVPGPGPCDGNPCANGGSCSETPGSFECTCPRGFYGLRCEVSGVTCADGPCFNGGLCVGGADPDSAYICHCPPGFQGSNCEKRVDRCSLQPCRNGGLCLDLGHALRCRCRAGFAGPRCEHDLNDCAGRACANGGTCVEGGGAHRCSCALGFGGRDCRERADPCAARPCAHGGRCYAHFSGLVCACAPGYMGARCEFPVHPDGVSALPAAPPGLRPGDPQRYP

B1: 1H012 anti-DLL3 trispecific protein (other)
chain: EVQLVESGGGLVQPGGSLTLSCVASGSTSSINAMGWYRRAPGKQRELVAGISSDGSKVYVDSVKGRFTISRDNAKNSVYLQMNSLRAEDTAVYYCYYFRTVSGSSMPYWGQGTLVTVSS
notes: also called 1H12; not shown: linker 1808, anti-albumin sdAb, linker 1808, anti-CD3 fragment, His6 1819
B2: 4H011 anti-DLL3 trispecific protein (other)
chain: EVQLVESGGGLVQPGGSLTLSCAASGSSVSRLSMAWYRQAPGKKRELVAGISVDGSTDYIDSVKGRFTISRDNAKNSVYLQMNSLRAEDTAVYYCYAYRWTTRLTYWGQGTLVTVSS
notes: also called 4H11; not shown: linker 1808, anti-albumin sdAb, linker 1808, anti-CD3 fragment, His6 1819
B3: 2H02 anti-DLL3 trispecific protein (other)
chain: B1 chain with G35A, V48A, V60A, R99H, P107R
notes: not shown: linker 1808, anti-albumin sdAb, linker 1808, anti-CD3 fragment, His6 1819
B4: 2E05 anti-DLL3 trispecific protein (other)
chain: B1 chain with T28P, M34Y, V60S, P107S
notes: as for B3
B5: 2E02 anti-DLL3 trispecific protein (other)
chain: B1 chain with S30A, M106Q, P107R
notes: as for B3
B6: 4D09 anti-DLL3 trispecific protein (other)
chain: B2 chain with S30K, R31F, V53A, D61L, R99E, L104Y
notes: as for B3
B7: cynomolgus DLL3 protein (Example 6) (ligand)
chain: T3 sequence
notes: also called cyDLL3
B8: human DLL3 protein (Example 6) (ligand)
chain: T2 sequence
notes: also called huDLL3

Changes are numbered by the printed parent chain.

T6 sequence (chain, as listed by the source): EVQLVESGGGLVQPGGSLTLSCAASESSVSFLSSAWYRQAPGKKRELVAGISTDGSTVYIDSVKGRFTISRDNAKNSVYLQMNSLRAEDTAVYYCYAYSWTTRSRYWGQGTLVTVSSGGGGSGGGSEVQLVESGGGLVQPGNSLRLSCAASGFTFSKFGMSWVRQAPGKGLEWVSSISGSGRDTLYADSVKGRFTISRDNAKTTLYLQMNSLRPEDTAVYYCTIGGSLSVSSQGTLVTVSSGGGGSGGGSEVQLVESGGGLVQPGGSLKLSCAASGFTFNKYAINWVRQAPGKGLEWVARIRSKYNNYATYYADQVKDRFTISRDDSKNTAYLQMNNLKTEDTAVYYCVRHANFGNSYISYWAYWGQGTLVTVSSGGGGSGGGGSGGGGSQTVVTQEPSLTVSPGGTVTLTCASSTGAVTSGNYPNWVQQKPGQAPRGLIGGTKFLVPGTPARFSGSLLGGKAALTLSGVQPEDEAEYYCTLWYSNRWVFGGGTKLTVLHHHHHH
T13 sequence (chain, as listed by the source): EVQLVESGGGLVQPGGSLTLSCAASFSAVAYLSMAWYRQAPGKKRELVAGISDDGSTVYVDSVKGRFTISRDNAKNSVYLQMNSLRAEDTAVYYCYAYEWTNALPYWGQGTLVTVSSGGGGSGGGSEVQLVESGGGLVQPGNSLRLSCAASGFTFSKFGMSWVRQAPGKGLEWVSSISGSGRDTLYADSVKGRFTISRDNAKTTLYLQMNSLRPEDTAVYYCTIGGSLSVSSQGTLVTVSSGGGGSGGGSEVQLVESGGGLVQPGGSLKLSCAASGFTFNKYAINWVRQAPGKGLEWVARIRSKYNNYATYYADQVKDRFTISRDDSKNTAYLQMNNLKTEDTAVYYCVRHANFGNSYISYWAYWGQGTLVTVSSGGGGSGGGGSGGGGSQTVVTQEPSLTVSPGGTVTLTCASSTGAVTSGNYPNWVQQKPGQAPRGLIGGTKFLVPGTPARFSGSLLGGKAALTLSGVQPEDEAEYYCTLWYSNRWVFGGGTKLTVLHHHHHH
T8 sequence (chain, as listed by the source): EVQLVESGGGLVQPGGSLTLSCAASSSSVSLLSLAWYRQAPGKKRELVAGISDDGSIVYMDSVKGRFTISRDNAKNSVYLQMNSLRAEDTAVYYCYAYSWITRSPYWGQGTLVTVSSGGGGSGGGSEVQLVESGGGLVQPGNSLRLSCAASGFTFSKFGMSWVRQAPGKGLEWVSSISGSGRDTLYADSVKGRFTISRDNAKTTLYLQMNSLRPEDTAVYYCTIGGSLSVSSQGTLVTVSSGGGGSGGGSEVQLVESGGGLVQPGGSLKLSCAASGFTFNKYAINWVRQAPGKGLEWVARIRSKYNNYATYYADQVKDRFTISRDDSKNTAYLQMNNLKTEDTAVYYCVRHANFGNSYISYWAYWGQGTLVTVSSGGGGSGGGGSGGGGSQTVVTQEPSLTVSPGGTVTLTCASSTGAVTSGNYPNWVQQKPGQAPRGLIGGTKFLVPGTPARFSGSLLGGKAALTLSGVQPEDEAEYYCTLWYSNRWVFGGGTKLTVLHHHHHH
T9 sequence (chain, as listed by the source): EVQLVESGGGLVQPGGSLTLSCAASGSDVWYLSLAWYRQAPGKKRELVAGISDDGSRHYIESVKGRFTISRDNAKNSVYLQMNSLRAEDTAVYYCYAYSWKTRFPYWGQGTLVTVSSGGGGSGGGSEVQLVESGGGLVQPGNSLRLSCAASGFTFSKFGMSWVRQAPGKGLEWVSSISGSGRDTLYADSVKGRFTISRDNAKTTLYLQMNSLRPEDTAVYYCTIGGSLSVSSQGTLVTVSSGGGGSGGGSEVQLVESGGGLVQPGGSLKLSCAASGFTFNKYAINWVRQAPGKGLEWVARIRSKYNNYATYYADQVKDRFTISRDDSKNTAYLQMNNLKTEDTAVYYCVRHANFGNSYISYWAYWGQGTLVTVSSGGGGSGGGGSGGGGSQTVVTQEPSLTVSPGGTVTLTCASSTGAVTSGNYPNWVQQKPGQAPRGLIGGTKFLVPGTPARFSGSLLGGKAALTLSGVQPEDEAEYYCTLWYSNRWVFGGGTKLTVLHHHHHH
T12 sequence (chain, as listed by the source): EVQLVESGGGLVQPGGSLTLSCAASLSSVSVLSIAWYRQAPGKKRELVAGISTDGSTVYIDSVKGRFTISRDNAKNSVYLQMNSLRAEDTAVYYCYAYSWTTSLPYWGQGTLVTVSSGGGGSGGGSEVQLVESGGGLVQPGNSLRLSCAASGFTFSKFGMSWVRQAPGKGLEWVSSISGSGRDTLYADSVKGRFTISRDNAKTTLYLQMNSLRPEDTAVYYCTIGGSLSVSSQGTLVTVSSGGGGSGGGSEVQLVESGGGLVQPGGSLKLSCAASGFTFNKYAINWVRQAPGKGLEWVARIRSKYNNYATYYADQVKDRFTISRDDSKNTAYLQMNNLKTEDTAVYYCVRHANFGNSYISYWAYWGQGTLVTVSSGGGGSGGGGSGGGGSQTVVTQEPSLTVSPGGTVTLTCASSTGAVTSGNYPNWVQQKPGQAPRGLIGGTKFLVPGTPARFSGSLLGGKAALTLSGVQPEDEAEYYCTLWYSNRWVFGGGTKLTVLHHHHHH

In the first assay the target is T1, human DLL3 on DLL3-expressing tumor …. Description: cell-based or functional assay.
Turning to B1, the “fold increase in TDCC potency compared to the parental DLL3 binder DH43” value was over 7 fold.

With B2, the “fold increase in TDCC potency compared to the parental DLL3 binder molecule (DH6)” value is over 8 fold.

A further assay has the same target. As to the kind of experiment: cell-based or functional assay. This is another data set of the same source.
In the case of B1, the “DMS-153 TDCC EC50” value is 0.028 nM.

Take B3: the “DMS-153 TDCC EC50” value is 0.031 nM.

Turning to B4, the “DMS-153 TDCC EC50” value is 0.033 nM.

Regarding B5, the “DMS-153 TDCC EC50” value amounted to 0.059 nM.

Regarding B6, the “DMS-153 TDCC EC50” value is 0.052 nM.

For the molecule B2, the “DMS-153 TDCC EC50” value was 0.036 nM.

A further assay shares this target. Description: cell-based or functional assay. The source holds these as a separate data set.
On to B1, for which the “DMS-153 TDCC EC50” value was found to be 0.063 nM.

For B3, the “DMS-153 TDCC EC50” value is 0.096 nM.

As for B4, the “DMS-153 TDCC EC50” value came to 0.072 nM.

B5: the “DMS-153 TDCC EC50” value amounted to 0.12 nM.

For the molecule B6, the “DMS-153 TDCC EC50” value is 0.06 nM.

The next assay addresses T2, biotinylated human DLL3 protein …. Description: Octet BLI, single 50 nM. A digest of the protocol: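 Anti-DLL3 trispecific proteins were tested directly from conditioned medium in which their concentrations were known. The tip-captured DLL3 fusion served as the immobilised partner, and binding affinity toward human DLL3 was determined from the Octet measurement.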
On the technique in general: BLI is a label-free optical method that tracks binding on a fibre tip over time.
As for B1, the Kd – broadly, the concentration at which binding is half-saturated – worked out at 3.5 nM.

As to B3, the affinity, expressed as Kd, was 4.4 nM.

In the case of B4, the Kd amounted to 3.9 nM.

Molecule B5 gave a Kd of 6 nM.

B6 came in with a Kd of 4.7 nM.

For the molecule B2, the Kd turned out to be 4.5 nM.

The next assay deals with T3, cynomolgus DLL3. As to the kind of experiment: Octet BLI, single 60 nM.
B1 had a Kd of 4.3 nM.

B3: binding was characterised by a dissociation constant (Kd) of 5.2 nM.

As for B4, the Kd amounted to 4.8 nM.

With B5, the Kd is 3.4 nM.

On to B6, for which the affinity, expressed as Kd, was 8.2 nM.

The molecule B2 showed a Kd of 5.7 nM.

A further assay concerns the target T2, biotinylated human DLL3 protein …. Description: Octet BLI, 60/20/6.67/2.22 nM. The protocol:
Using the conditioned medium with known concentrations of the anti-DLL3 trispecific proteins, the binding affinities of the anti-DLL3 trispecific proteins toward human DLL3 protein were measured using a method where biotinylated version of human DLL3 protein were expressed as a human IgG1 fusion protein, and the binding affinity measurement was carried out in an Octet instrument with streptavidin tips.
The molecule B1 registered a Kd of 2.9 nM.

Molecule B3 had a Kd of 4.4 nM.

For the molecule B4, the Kd was found to be 3.5 nM.

With B5, the Kd was found to be 4.4 nM.

Take B6: binding was characterised by a dissociation constant (Kd) of 8.1 nM.

In turn, B2 returned a Kd of 3.9 nM.

The next assay deals with T4, anti-DLL3 trispecific protein with DLL3 binding domain 52C04.
T4 construct: trispecific, one chain; also called 52C4
T4 sequence (chain, as listed by the source): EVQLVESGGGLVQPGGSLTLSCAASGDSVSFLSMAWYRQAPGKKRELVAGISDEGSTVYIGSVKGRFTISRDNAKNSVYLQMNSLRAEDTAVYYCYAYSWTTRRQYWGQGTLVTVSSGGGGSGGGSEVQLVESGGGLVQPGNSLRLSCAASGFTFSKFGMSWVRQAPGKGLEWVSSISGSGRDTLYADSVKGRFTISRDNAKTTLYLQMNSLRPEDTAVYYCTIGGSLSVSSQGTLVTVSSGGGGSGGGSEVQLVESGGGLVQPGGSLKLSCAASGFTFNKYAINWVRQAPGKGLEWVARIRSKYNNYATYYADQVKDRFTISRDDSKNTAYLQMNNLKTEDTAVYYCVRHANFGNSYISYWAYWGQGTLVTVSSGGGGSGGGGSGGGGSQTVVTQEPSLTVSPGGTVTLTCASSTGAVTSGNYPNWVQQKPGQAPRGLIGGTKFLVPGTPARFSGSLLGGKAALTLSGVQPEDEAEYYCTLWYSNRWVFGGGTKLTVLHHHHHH
Description: Octet BLI; biotinylated purified CHO trispecific on streptavidin tips; 60, 20, 6.67, 2.22 nM.
In turn, B7 returned a Kd of 3 nM.

For B8, the Kd came to 2.2 nM.

The target of another assay is T5, anti-DLL3 trispecific protein with DLL3 binding domain 51A05.
T5 construct: trispecific, one chain; also called 51A5
T5 sequence (chain, as listed by the source): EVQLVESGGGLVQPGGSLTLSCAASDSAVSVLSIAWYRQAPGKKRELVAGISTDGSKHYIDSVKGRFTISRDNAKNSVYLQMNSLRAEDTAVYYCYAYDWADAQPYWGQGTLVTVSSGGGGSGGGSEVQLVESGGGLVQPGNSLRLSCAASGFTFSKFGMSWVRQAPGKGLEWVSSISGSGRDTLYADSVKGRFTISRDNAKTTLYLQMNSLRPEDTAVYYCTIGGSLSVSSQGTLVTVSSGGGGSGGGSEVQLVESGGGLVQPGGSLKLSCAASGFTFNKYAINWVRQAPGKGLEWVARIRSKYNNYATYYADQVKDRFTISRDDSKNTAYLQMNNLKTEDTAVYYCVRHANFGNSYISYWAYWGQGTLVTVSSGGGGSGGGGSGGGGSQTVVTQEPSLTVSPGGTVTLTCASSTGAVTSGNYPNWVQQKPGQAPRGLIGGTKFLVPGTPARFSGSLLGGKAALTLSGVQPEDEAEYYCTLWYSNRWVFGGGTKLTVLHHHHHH
The description is as above.
For B7, the Kd amounted to 1.6 nM.

Consider B8, for which the Kd was determined as 1.2 nM.

A further assay concerns the target T6, anti-DLL3 trispecific protein with DLL3 binding domain 51G02.
T6 construct: trispecific, one chain; also called 51G2
The description is as above.
In the case of B7, the Kd turned out to be 3.4 nM.

The molecule B8 yielded a dissociation constant (Kd) of 2 nM.

The target of the next assay is T7, anti-DLL3 trispecific protein with DLL3 binding domain 51F03.
T7 construct: trispecific, one chain; also called 51F3
T7 sequence (chain, as listed by the source): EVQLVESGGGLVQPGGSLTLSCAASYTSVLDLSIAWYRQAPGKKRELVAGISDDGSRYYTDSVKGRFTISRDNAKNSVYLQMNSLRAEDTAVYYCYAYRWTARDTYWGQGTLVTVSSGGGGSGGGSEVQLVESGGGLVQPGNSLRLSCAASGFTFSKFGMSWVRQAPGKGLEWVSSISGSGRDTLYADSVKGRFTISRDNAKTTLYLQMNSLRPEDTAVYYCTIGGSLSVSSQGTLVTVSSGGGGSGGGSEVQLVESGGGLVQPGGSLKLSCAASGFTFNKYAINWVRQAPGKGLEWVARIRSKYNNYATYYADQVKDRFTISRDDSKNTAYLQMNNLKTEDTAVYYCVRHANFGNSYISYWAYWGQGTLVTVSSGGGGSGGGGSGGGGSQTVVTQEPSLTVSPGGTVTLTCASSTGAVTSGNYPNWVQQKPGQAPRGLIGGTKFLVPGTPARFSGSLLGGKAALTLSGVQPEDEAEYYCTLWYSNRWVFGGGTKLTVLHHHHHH
Described as above.
With B7, the Kd was 2 nM.

Molecule B8 had a Kd of 1.4 nM.

A further assay has as its target T8, anti-DLL3 trispecific protein with DLL3 binding domain 52D04.
T8 construct: trispecific, one chain; same domain order as the TAC protein m79; also called 52D4
The description is as above.
For B7, the Kd was 1.7 nM.

In the case of B8, binding was characterised by a dissociation constant (Kd) of 0.9 nM.

The next assay addresses T9, anti-DLL3 trispecific protein with DLL3 binding domain 51G10.
T9 construct: trispecific, one chain
The assay is described as above.
B7: binding was characterised by a dissociation constant (Kd) of 1.4 nM.

B8 gave a Kd of 0.9 nM.

In the next assay the target is T10, anti-DLL3 trispecific protein with DLL3 binding domain 52B01.
T10 construct: trispecific, one chain; also called 52B1
T10 sequence (chain, as listed by the source): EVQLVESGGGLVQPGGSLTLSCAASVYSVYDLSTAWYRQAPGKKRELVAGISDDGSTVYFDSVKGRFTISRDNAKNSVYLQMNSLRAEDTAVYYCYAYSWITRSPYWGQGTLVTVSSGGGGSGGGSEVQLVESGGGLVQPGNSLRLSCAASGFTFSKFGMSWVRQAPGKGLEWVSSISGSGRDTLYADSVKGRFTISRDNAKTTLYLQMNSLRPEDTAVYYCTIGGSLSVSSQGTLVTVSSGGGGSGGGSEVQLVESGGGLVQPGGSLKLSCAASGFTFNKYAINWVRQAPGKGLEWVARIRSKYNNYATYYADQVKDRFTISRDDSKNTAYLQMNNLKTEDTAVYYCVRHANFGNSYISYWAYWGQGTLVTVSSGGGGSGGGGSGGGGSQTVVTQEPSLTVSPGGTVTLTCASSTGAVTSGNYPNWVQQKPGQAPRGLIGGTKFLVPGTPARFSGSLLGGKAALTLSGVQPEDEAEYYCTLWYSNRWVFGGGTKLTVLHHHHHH
The description is as above.
For B7, the Kd was 1.9 nM.

For B8, the Kd was 1.1 nM.

For the next assay, the target named is T11, anti-DLL3 trispecific protein containing the parental DLL3 binder DH6.
T11 construct: trispecific, one chain
T11 sequence (chain, as listed by the source): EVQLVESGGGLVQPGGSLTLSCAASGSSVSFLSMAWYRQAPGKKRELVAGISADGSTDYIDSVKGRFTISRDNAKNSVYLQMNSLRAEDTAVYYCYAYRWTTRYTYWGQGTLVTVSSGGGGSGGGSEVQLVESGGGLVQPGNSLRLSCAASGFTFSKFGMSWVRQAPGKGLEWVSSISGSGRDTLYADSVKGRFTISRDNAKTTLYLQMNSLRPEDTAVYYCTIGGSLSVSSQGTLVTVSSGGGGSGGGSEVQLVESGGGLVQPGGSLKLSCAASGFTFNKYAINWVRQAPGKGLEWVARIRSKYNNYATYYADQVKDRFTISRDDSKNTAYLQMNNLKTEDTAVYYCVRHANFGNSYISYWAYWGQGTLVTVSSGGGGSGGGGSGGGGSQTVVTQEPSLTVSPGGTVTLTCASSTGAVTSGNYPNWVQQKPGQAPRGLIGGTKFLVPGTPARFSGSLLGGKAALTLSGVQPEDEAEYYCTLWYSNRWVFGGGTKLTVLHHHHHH
The description is as above.
As to B7, the Kd is 11 nM.

For B8, the Kd came to 13.5 nM.

Another assay addresses T12, anti-DLL3 trispecific protein with DLL3 binding sequence 51X5.
T12 construct: trispecific, one chain
Described as above.
The molecule B7 gave a Kd of 1.5 nM.

In the case of B8, the Kd was determined as 1 nM.

A further assay has as its target T13, anti-DLL3 trispecific protein with DLL3 binding domain 51H05.
T13 construct: trispecific, one chain; also called 51H5
Described as above.
Take B7: the Kd turned out to be 1.6 nM.

Turning to B8, binding was characterised by a dissociation constant (Kd) of 0.9 nM.

Source of the values: patent US20240141072A1 (published 2024).
